Experimental findings from US7037504B2, “Epidermal growth factor protein and gene, and methods of use therefor” (Waratah Pharmaceuticals, Inc., priority 2001, dated 2006) are described below.

One series concerns the target T1, carboxypeptidase B (Homo sapiens, UniProt P15086).
T1 sequence (P15086 111-417): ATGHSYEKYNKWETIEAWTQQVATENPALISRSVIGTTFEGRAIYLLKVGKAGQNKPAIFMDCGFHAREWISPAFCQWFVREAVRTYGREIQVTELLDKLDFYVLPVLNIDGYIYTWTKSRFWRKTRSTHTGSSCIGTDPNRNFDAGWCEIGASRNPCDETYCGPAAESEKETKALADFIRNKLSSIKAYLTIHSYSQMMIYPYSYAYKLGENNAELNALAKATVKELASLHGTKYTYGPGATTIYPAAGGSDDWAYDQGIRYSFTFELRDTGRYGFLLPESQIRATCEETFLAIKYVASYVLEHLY
In words: Resistance in vitro to digestion with carboxypeptidase B. The class given is in vitro ADME.

Series [1] concerns streptozotocin-induced diabetic rats. In words: Stimulation of islet neogenesis in vivo, glucose challenge in diabetic rats. Further details: species or system rat. Here is the method: After treatment, rats were evaluated for ability to restore plasma glucose to resting levels, shown on the ordinate, as a function of time in minutes shown on the abscissa, after an oral glucose challenge.
EGF51N produced as above was used in an assay to measure to stimulation of islet neogenesis in vivo, as measured by lower blood concentration of treated animals to a subsequent challenge by glucose, to diabetic rats.

Series [2] deals with anaesthetized gastric fistula rats. The series is described as follows: Inhibition of gastric acid secretion in vivo. The conditions noted are these: after intravenous bolus injection of 8 μg. Set-up: species or system rat.
[3] abbreviates: relative enzyme concentration (ratio of carboxypeptidase to EGF) 0.01.
Where [4] appears, read: relative enzyme concentration (ratio of carboxypeptidase to EGF) 0.1.
[5] abbreviates: relative enzyme concentration (ratio of carboxypeptidase to EGF) 1 (excess enzyme).

For `CC[C@H](C)[C@@H]1NC(=O)[C@H](Cc2ccc(O)cc2)NC(=O)CNC(=O)[C@H](C(C)C)NC(=O)[C@H](C(C)C)NC(=O)[C@@H](NC(=O)[C@H](CC(N)=O)NC(=O)[C@@H]2CSSC[C@@H]3NC(=O)[C@H](Cc4ccc(O)cc4)NC(=O)CNC(=O)[C@H](CC(=O)O)NC(=O)[C@H](Cc4c[nH]cn4)NC(=O)[C@H](CO)NC(=O)[C@H](CC(C)C)NC(=O)[C@@H]4CCCN4C(=O)[C@@H](NC(=O)[C@H](CCC(=O)O)NC(=O)[C@H](CO)NC(=O)[C@H](CC(=O)O)NC(=O)[C@H](CO)NC(=O)[C@@H](N)CC(N)=O)CSSC[C@H](NC(=O)[C@H](C(C)C)NC(=O)CNC(=O)[C@H](CC(=O)O)NC(=O)[C@H](Cc4c[nH]cn4)NC(=O)[C@H](CC(C)C)NC3=O)C(=O)N[C@@H](CCSC)C(=O)N[C@@H](Cc3ccc(O)cc3)C(=O)N[C@@H]([C@@H](C)CC)C(=O)N[C@@H](CCC(=O)O)C(=O)N[C@@H](C)C(=O)N[C@@H](CC(C)C)C(=O)N[C@@H](CC(=O)O)C(=O)N[C@@H](CCCCN)C(=O)N[C@@H](Cc3ccc(O)cc3)C(=O)N[C@@H](C)C(=O)N2)CSSC[C@@H](C(=O)N[C@@H](CCC(N)=O)C(=O)N[C@@H](Cc2ccc(O)cc2)C(=O)N[C@@H](CCCNC(=N)N)C(=O)N[C@@H](CC(=O)O)C(=O)N[C@@H](CC(C)C)C(=O)N[C@@H](CCCCN)C(=O)N[C@@H](Cc2c[nH]c3ccccc23)C(=O)N[C@@H](Cc2c[nH]c3ccccc23)C(=O)N[C@@H](CCC(=O)O)C(=O)N[C@@H](CC(C)C)C(=O)N[C@@H](CCCNC(=N)N)C(=O)O)NC(=O)[C@H](CCCNC(=N)N)NC(=O)[C@H](CCC(=O)O)NC(=O)CNC1=O` [EGF53, reference compound], the “% remaining” value in the series with carboxypeptidase B (setting [3]) is 75%; with carboxypeptidase B (setting [4]), 1%; with carboxypeptidase B (setting [5]) it was 1%.
Regarding “EGF51N: modified human EGF, chain length 51 amino acids, C-terminus residue asparagine instead of glutamic acid; produced in Pichia pastoris (NSDSECPLSHDGYCLHDGVCMYIEALDKYACNCVVGYIGERCQYRSLKYYN; not fully specified; Recombinant human EGF51N)”, the “% remaining” value in the series with carboxypeptidase B (setting [3]) came to 75%; with carboxypeptidase B (setting [4]), 30%; with carboxypeptidase B (setting [5]), 6%. For the same compound, the “restoration of plasma glucose to resting levels after oral glucose challenge” value in series [1] (40 μg/kg/day of each of human gastrin and EGF51N, intraperitoneal continuous infusion for 14 days) was “Rapid restoration to resting levels of plasma glucose”. For the same compound, the “potency in stimulation of islet neogenesis” value in series [1] (diabetic rats, glucose challenge, compared with positive control TGFα) was “equivalent to the positive control TGFα”. For the same compound, the “duration of inhibition of gastric acid production” value in series [2] lay within 20 to 50 min. Moreover, the “onset of inhibition of gastric acid production” value in series [2] lay within 10 to 20 min.
